The source of these data is patent publication US20100317054A1 (VIRGINIA TECH INTELLECTUAL PROPERTIES, published 2010).

B1: human ICAM-2-Fc chimera (Fc fusion, UniProt P13598 25-223, looked up)
chain: KVFEVHVRPKKLAVEPKGSLEVNCSTTCNQPEVGGLETSLDKILLDEQAQWKHYLVSNISHDTVLQCHFTCSGKQESMNSNVSVYQPPRQVILTLQPTLVAVGKSFTIECRVPTVEPLDSLTLFLFRGNETLHYETFGKAAPAPQEATATFNSTADREDGHRNFSCLAVLDLMSRGGNIFHKHSAPKMLEIYEPVSDSQ
notes: Bought from R&D Systems; soluble immunoadhesin; also called hICAM2-Fc; hICAM-2-Fc; not shown: human IgG Fc (detected with anti-human IgG Fc antibody)
B3: human DC-SIGN (receptor, UniProt Q9NNX6 1-404, looked up)
chain: MSDSKEPRLQQLGLLEEEQLRGLGFRQTRGYKSLAGCLGHGPLVLQLLSFTLLAGLLVQVSKVPSSISQEQSRQDAIYQNLTQLKAAVGELSEKSKLQEIYQELTQLKAAVGELPEKSKLQEIYQELTRLKAAVGELPEKSKLQEIYQELTWLKAAVGELPEKSKMQEIYQELTRLKAAVGELPEKSKQQEIYQELTRLKAAVGELPEKSKQQEIYQELTRLKAAVGELPEKSKQQEIYQELTQLKAAVERLCHPCPWEWTFFQGNCYFMSNSQRNWHDSITACKEVGAQLVVIKSAEEQNFLQLQSSRSNRFTWMGLSDLNQEGTWQWVDGSPLLPSFKQYWNRGEPNNVGEEDCAEFSGNGWNDDKCNLAKFWICKKSAASCSRDEEQFLSPAPATPNPPPA
notes: whole, on cells; Positive control cell line; also called hDC-SIGN; CD209

For the assay “human DC-SIGN”, the target named is B3. The assay is described as follows: flow cytometry histograms, FIGS. 8b-8e. The source says: (§1) FIGS. 8a to 8e show the binding of human ICAM-3 and ICAM-2 immunoadhesins to BHK cells stably expressing pDC-SIGN. FIG. 8a provides the detection of surface expression of pDC-SIGN protein on stable BHK cell lines. BHK-21, and unsorted or sorted BHK-PDCS cell lines were stained with anti-pDC-SIGN antibody and FITC-labeled goat anti-rabbit IgG, respectively, and analyzed by flow cytometry. Dashed open histograms represented the background staining The expression of pDC-SIGN was indicated by the cross-hatched histograms. Expression of hDC-SIGN on the surface of 3T3-HDCS cell line was also verified by staining with a hDC-SIGN monoclonal antibody (right, bottom panel). FIGS. 8b to 8e illustrate the calcium-dependent binding of human ICAM-3 and ICAM-2 immunoadhesins to BHK-PDCS and 3T3-HDCS cells. Dashed open histograms represent cells staining only with a FITC labeled anti-human IgG Fc antibody. Results are representative of three independent experiments. Data are expressed as histogram analysis of 10,000 cells.
(§2) Human ICAM-3 and ICAM-2 binding assay: Adhesion of human ICAM-3 or ICAM-2 to pDC-SIGN proteins was assessed with BHK-PDCS and BHK-21 cells by measuring detectable cells that bound the soluble immunoadhesins through FACS analysis. 3T3-HDCS cells were used as the positive control. […] Fluorescence was monitored using FACSAria (BD Biosciences, San Jose, Calif.).
(In general: In flow cytometry, cells or beads pass a laser one at a time.)

Assay [1] has as its target T1, human ICAM-3-Fc chimera (human, UniProt P32942 30-485, limits assumed).
T1 construct: Bought from R&D Systems; soluble immunoadhesin; also called hICAM3-Fc; hICAM-3-Fc; not shown: human IgG Fc (detected with anti-human IgG Fc antibody)
T1 sequence (looked up): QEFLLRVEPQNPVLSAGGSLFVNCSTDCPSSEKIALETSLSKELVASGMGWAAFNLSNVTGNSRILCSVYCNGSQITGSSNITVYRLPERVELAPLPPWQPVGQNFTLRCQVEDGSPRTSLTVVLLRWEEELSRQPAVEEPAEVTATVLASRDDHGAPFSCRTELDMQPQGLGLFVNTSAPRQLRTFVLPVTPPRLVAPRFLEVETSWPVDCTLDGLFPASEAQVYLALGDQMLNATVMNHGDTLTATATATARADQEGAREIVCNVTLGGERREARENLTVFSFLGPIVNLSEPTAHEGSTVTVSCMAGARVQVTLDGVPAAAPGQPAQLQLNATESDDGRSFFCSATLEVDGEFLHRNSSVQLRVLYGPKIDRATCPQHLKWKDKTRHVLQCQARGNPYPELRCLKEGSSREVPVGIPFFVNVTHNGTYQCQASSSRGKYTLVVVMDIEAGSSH
The assay is described as follows: flow cytometry on BHK-PDCS cells, 1 ug Fc chimera, FITC anti-human IgG Fc.
From the text: as §1, §2

The assay “human ICAM-2-Fc chimera” addresses B1. The assay is described as above.
From the text: as §1, §2

The target in assay [2] is T2, recombinant human IgG1 Fc (human, UniProt P01857-1 100-330 = IgG part).
T2 construct: domain: Fc; Negative control for the ICAM-Fc chimeras; also called hFc
The assay is described as follows: flow cytometry on BHK-PDCS cells, FITC anti-human IgG Fc detection. Here is the method: (§3) Human ICAM-3 and ICAM-2 binding assay: Adhesion of human ICAM-3 or ICAM-2 to pDC-SIGN proteins was assessed with BHK-PDCS and BHK-21 cells by measuring detectable cells that bound the soluble immunoadhesins through FACS analysis. 3T3-HDCS cells were used as the positive control. Cells (1˜3×10⁵ per sample) were resuspended in 100 μL PBS containing 2% FBS and incubated for 60 min at 4° C. with 1 μg of recombinant human IgG₁ Fc (hFc), human ICAM-3-Fc (hICAM3-Fc) chimera or hICAM2-Fc chimera (R&D Systems, Minneapolis, Minn.) in the presence or absence of mannan (100 μg/mL) or ethylene glycol tetraacetic acid (EGTA, 10 mM). Cells were then washed twice and incubated for another 45 min at 4° C. with 0.5 μg of FITC-labeled anti-human IgG Fc antibody (KPL, Inc., Gaithersburg, Md.) in 100 μL PBS containing 2% FBS. Fluorescence was monitored using FACSAria (BD Biosciences, San Jose, Calif.).

Assay [3] concerns the target T1, human ICAM-3-Fc chimera. Nature of the assay: flow cytometry on 3T3-HDCS cells, 1 ug Fc chimera, FITC anti-human IgG Fc.
From the text: as §1, §2

Assay [4] addresses T2, recombinant human IgG1 Fc. Nature of the assay: flow cytometry on 3T3-HDCS cells, FITC anti-human IgG Fc detection. Here is the method: as §3

For B1, in the assay with human DC-SIGN, the binding result is “binds”.

B2: porcine DC-SIGN (receptor)
chain: MAEICDPKEPEEKTWTGPVLVERDLGLLRRLRNSPGCLTWPLLLLLLFVSLGFFMLLVTTLVQVSRIHQSLQRERETSRRPTAQEKIQSSLDKFLQQMTWMNATLAGLCHPCPWHWEFFQGRCYLFSQTQSDWKSSLSACKDIGAQLVIINSTAEQKFLKSWYVRYNKATWIGLSDDTNEGSWQWVDNSPLQLSFWKEGEPNNHGDEDCAELHNDGWNDSKCTVENAWICEKPSSPCPML
notes: In the Western blot it stood in a cell lysate (band of about 48 kDa, probably glycosylated); also called pDC-SIGN; BHK-PDCS (BHK-21 cells stably expressing it)
B2: the binding result in the assay with human ICAM-3-Fc chimera [1] is given as “binds”; with human ICAM-2-Fc chimera, “binds”; in assay [2], “no binding (tested: 1 ug in 100 uL)”.
With B3, the binding result is reported as “binds” with human ICAM-3-Fc chimera [3] and “no binding (tested: 1 ug in 100 uL)” in assay [4].
